Consider 10 molecules from patent US20190055322A1.

Where “and” joins values, the source holds several entries; their conditions need not be identical. Identical values can stand only once.

First the molecules themselves.
B1: Nanobody 335 (5H01-40GS-1E11) (VHH)
chain: EVQLVESGGGLVQPGGSLRLSCAASGSTLDYYAIGWFRQAPGKEREGVSCTSNSGSTYYGGSVKGRFTASRDNAKNTVYLQMNSLRPEDTAVYYCVATIGCATLGGTLDVQRYYYRGQGTLVTVSSGGGGSGGGGSGGGGSGGGGSGGGGSGGGGSGGGGSGGGGSEVQLVESGGGLVQPGGSLRLSCAASGSTRSVNPMAWFRQAPGRQREWVATISRSGYATYADSVKGRFTISGDNAKSSVYLQMNSLKPEDTAVYYCVTGTYWGQGTLVTVSS
B2: Nanobody 257 (13F07-40GS-2B10) (VHH)
chain: EVQLVESGGGLVQAGGSLRLSCAASGNTFSTNPMYWYRQAEGKQRELVASISSRGITNYADSVRGRFSISRDNTKDTVYLQMNSLKPEDTAVYYCRLASLSSGTVYWGKGTLVTVSSGGGGSGGGGSGGGGSGGGGSGGGGSGGGGSGGGGSGGGGSEVQLVESGGGLVQPGGSLRLSCAASGSIFSINNMGWYRQAPGKQRELVTVVTSNLITTYADSVKGRFTISRDNAKNTVYLQMNSLKPEDTAVYYCNAWARSVGSVPYSQFWGQGTLVTVSS
B3: Nanobody 319 (13F07-40GS-6B05) (VHH)
chain: EVQLVESGGGLVQAGGSLRLSCAASGNTFSTNPMYWYRQAEGKQRELVASISSRGITNYADSVRGRFSISRDNTKDTVYLQMNSLKPEDTAVYYCRLASLSSGTVYWGKGTLVTVSSGGGGSGGGGSGGGGSGGGGSGGGGSGGGGSGGGGSGGGGSEVQLVESGGGLVQPGGSLRLSCAASGSIFSINTMGWYRQAPGKQRELVSTITSNLVPHYADSVQGRFTISRDNARNTVYLQMNSLKPQDTAHYYCNAWARSSGATPYTNYWGQGTLVTVSS
B4: Nanobody 285 (13F07-40GS-2B02) (VHH)
chain: EVQLVESGGGLVQAGGSLRLSCAASGNTFSTNPMYWYRQAEGKQRELVASISSRGITNYADSVRGRFSISRDNTKDTVYLQMNSLKPEDTAVYYCRLASLSSGTVYWGKGTLVTVSSGGGGSGGGGSGGGGSGGGGSGGGGSGGGGSGGGGSGGGGSEVQLVESGGGLVQPGDSLRLSCAASGRILSINNMVWYRQAPGKQRELVAHITSSGSTGYADSVKGRFTISRDNAKNTFYLQMTNLNPEDTAVYYCNCWVSSDSNAPLKNYWGQGTLVTVSS
B5: Nanobody 275 (2G09-40GS-5H01) (VHH)
chain: EVQLVESGGGLVQPGGSLRLSCAASGSFGDNYELYAMTWFRQAPGERRDFVASVTGDGSTSYADSVKDRFTISRDNAKKLMYLQMNSLKPEDTAVYYCRLLNYWGQGTLVTVSSGGGGSGGGGSGGGGSGGGGSGGGGSGGGGSGGGGSGGGGSEVQLVESGGGLVQPGGSLRLSCAASGSTLDYYAIGWFRQAPGKEREGVSCTSNSGSTYYGGSVKGRFTASRDNAKNTVYLQMNSLRPEDTAVYYCVATIGCATLGGTLDVQRYYYRGQGTLVTVSS
B6: Nanobody 271 (7C10-40GS-14E10) (VHH)
chain: EVQLVESGGGLVQAGGSLRLSCTASGRTLSSYTMGWFRQAPGTEREFVAAMTRSGFNTYYADSVKGRFTISRDSTENTMALQMSSLKPEDTAVYYCTAGRGLTSYRADYWGQGTLVTVSSGGGGSGGGGSGGGGSGGGGSGGGGSGGGGSGGGGSGGGGSEVQLVESGGGLVQPGGSLRLSCAASGRIFSINTMGWYRQAPGKQRELVAGVTINAITNYADSVKGRFTISRDNAKNTVWLQMNSLKPEDTAVYYCHAWARSSGSAPYSQNWGQGTLVTVSS
B7: Nanobody 256 (13F07-40GS-5H01) (VHH)
chain: EVQLVESGGGLVQAGGSLRLSCAASGNTFSTNPMYWYRQAEGKQRELVASISSRGITNYADSVRGRFSISRDNTKDTVYLQMNSLKPEDTAVYYCRLASLSSGTVYWGKGTLVTVSSGGGGSGGGGSGGGGSGGGGSGGGGSGGGGSGGGGSGGGGSEVQLVESGGGLVQPGGSLRLSCAASGSTLDYYAIGWFRQAPGKEREGVSCTSNSGSTYYGGSVKGRFTASRDNAKNTVYLQMNSLRPEDTAVYYCVATIGCATLGGTLDVQRYYYRGQGTLVTVSS
B8: Nanobody 261 (5H01-40GS-2B10) (VHH)
chain: EVQLVESGGGLVQPGGSLRLSCAASGSTLDYYAIGWFRQAPGKEREGVSCTSNSGSTYYGGSVKGRFTASRDNAKNTVYLQMNSLRPEDTAVYYCVATIGCATLGGTLDVQRYYYRGQGTLVTVSSGGGGSGGGGSGGGGSGGGGSGGGGSGGGGSGGGGSGGGGSEVQLVESGGGLVQPGGSLRLSCAASGSIFSINNMGWYRQAPGKQRELVTVVTSNLITTYADSVKGRFTISRDNAKNTVYLQMNSLKPEDTAVYYCNAWARSVGSVPYSQFWGQGTLVTVSS
B9: Nanobody 277 (5H01-40GS-11B09) (VHH)
chain: EVQLVESGGGLVQPGGSLRLSCAASGSTLDYYAIGWFRQAPGKEREGVSCTSNSGSTYYGGSVKGRFTASRDNAKNTVYLQMNSLRPEDTAVYYCVATIGCATLGGTLDVQRYYYRGQGTLVTVSSGGGGSGGGGSGGGGSGGGGSGGGGSGGGGSGGGGSGGGGSEVQLVESGGGLVQAGGSLRLSCAASRLTFNHYNMGWFRQAPGKERERVAEVTWSGDKIYYVDSVKGRFTISRDNTPNPVYLYLQMNSLKPEDTAVYYCATAPRGLPYANGYWGQGTLVTVSS
B10: Nanobody 259 (1E11-40GS-5H01) (VHH)
chain: EVQLVESGGGLVQPGGSLRLSCAASGSTRSVNPMAWFRQAPGRQREWVATISRSGYATYADSVKGRFTISGDNAKSSVYLQMNSLKPEDTAVYYCVTGTYWGQGTLVTVSSGGGGSGGGGSGGGGSGGGGSGGGGSGGGGSGGGGSGGGGSEVQLVESGGGLVQPGGSLRLSCAASGSTLDYYAIGWFRQAPGKEREGVSCTSNSGSTYYGGSVKGRFTASRDNAKNTVYLQMNSLRPEDTAVYYCVATIGCATLGGTLDVQRYYYRGQGTLVTVSS

For the assay, the target named is different PcrV variants and reference strain PAO1 (23 PcrV sequence variants, GST-PcrV-His6).
For B1, the EC50 is 0.07 nM and 0.09 nM. On to B2, for which the EC50 was 0.07 nM and 0.09 nM. The value for B3 was 0.08 nM and 0.1 nM; that for B4 was 0.1 nM; that for B5 was 0.6 nM and 0.9 nM. With B6, the EC50 is 0.06 nM and 0.1 nM. The value for B7 was 0.07 nM and 0.1 nM; that for B8 was 0.06 nM and 0.07 nM; that for B9 was 0.07 nM and 0.1 nM.

With B10, the EC50 was 0.01 nM and 0.02 nM.

In general, EC50 refers to the midpoint of the concentration-response curve.
